Results reported in patent US20210380703A1 (RIGEL PHARMACEUTICALS, published 2021).
Where a chain is given by its changes, count along the chain named.

B1: 375_C06 (antibody, V domains shown)
VH: EVQLLESGGGLVQPGGSLRLSCAASGFTFDDYGMHWVRQAPGKGLEWVASINYNSGYTSYADSVKGRFTISRDNSKNTLYLQMNSLRAEDTAVYYCARSANWHDTALDYWGQGTLVTVSS
VL: DIQMTQSPSSLSASVGDRVTITCRASQSILTYVNWYQQKPGKAPKLVIYATTSRASGVPSRFSGSGSGTDFTLTISSLQPEDFATYYCQQSYDSPLTFGGGTKVEIK
notes: VH/VL only
B2: 376_B11 (antibody, V domains shown)
VH: B1 VH with D30S, D31S, G33S, H35N, A49S, S50G, S55G
VL: B1 VL with T31S, T51A, S94L
notes: VH/VL only
B3: 375_D07 (antibody, V domains shown)
VH: B1 VH with D30S, D31S, H35N, S50N, S59G
VL: B1 VL with L30I, V33L, V47L, T51A, S94T
notes: VH/VL only
B4: 376_A10 (antibody, V domains shown)
VH: B1 VH with D30S, H35N, A49S, S50N, T58K, S59G
VL: B1 VL with T31S, V33L, V47L, T51A, D93E
notes: VH/VL only
B5: 376_B09 (antibody, V domains shown)
VH: B1 VH with D31S, G33S, H35N, S50N, T58K, S59G
VL: B1 VL with T51A, S94L
notes: VH/VL only
B6: 376_B01 (antibody, V domains shown)
VH: B1 VH with D31S, G33S, H35N, S50G, S55G, N101T, A106H
VL: B1 VL with T51A, D93N, S94L
notes: VH/VL only
B7: 376_E12 (antibody, V domains shown)
VH: B1 VH with D30S, D31S, G33S, H35N, S50G, S55G, T58K, N101T, A106H
VL: not shown
notes: VH/VL only
B8: 376_C02 (antibody, V domains shown)
VH: B1 VH with D31S, H35N, A49S, S50G
VL: B1 VL with L30V, T31S, V33L, T51V
notes: VH/VL only
B9: 376_B07 (antibody, V domains shown)
VH: B1 VH with D31S, G33S, H35N, A49S, S50G, N101T
VL: B1 VL with T31S, V33L, A50Y, T51V, T52S, S53N, S94N
notes: VH/VL only
B10: 375_D05 (antibody, V domains shown)
VH: B1 VH with D30S, D31S, G33S, H35N, A106H
VL: B1 VL with L30V, T31S, V33L, V47L, T51A, R54L, A55H, S94T
notes: VH/VL only
B11: 376_G09 (antibody, V domains shown)
VH: B1 VH with D31S, G33S, H35N, A49S, S50G, T58K, S59G
VL: B1 VL with L30S, T31Y, V33L, V47L, T51V, S94N
notes: VH/VL only
B12: 376_C11 (antibody, V domains shown)
VH: B1 VH with D31S, G33S, H35N, S50G, T58K, N101T, A106H
VL: B1 VL with V33L, T51A, S94N
notes: VH/VL only
B13: 376_B04 (antibody, V domains shown)
VH: B1 VH with D31S, S55G, S59G
VL: B1 VL with L30V, T31S, T51A, S94T
notes: VH/VL only
B14: 375_D08 (antibody, V domains shown)
VH: B1 VH with D30S, H35N, A49S, S50G, T58K, S59G
VL: B1 VL with L30I, V33L, V47L, T51A, D93S, S94T
notes: VH/VL only
B15: 376_E08 (antibody, V domains shown)
VH: B1 VH with D30S, H35N, S50G, S55G
VL: B1 VL with L30V, T31S, T51A
notes: VH/VL only
B16: 375_D12 (antibody, V domains shown)
VH: B1 VH with D31S, H35N, A49S
VL: B1 VL with T51A, D93E, S94T
notes: VH/VL only
B17: 376_C01 (antibody, V domains shown)
VH: B1 VH with D31S, G33S, H35N, S50G, S55G
VL: B1 VL with V33L, V47L, T51A, R54L, S94N
notes: VH/VL only
B18: 376_F12 (antibody, V domains shown)
VH: B1 VH with G33S, H35N, S50G, S55G, T58K, N101T, A106H
VL: not shown
notes: VH/VL only
B19: 376_E03 (antibody, V domains shown)
VH: B1 VH with D30S, D31S, H35N, S50N, S55G, S59G
VL: B1 VL with T31S, T51A, R54L, S94L
notes: VH/VL only
B20: 375_H12 (antibody, V domains shown)
VH: B1 VH with D30S, D31S, H35N, S50G, S55G, T58K, S59G
VL: B1 VL with V33L, V47L, A50Y, T51V, S53N, A55Q, D93S, S94I
notes: VH/VL only
B21: 376_G08 (antibody, V domains shown)
VH: B1 VH with D31S, H35N, S50N, S55G
VL: B1 VL with T31S, T51A, S94T
notes: VH/VL only
B22: 376_C06 (antibody, V domains shown)
VH: B1 VH with D30S, D31S, H35N, S50G, S55G, N101T
VL: B1 VL with T31S, V33L, T51A
notes: VH/VL only
B23: 376_A06 (antibody, V domains shown)
VH: B1 VH with D31S, G33S, H35N, A49S, S50G, N101T
VL: B1 VL with T31S, V33L, A50Y, T51V, T52S, S53N, S94N
notes: VH/VL only
B24: 376_B05 (antibody, V domains shown)
VH: B1 VH with D30S, D31S, G33S, H35N, S50N, S55G, S59G
VL: B1 VL with L30I, T31S, V47L, T51A, D93E, S94L
notes: VH/VL only
B25: 375_E07 (antibody, V domains shown)
VH: B1 VH with D30S, G33S, H35N, S50G, T58K, S59G
VL: B1 VL with L30V, V33L, V47L, A50V, T51V, S53N, A55E, D93E, S94T
notes: VH/VL only
B26: 375_C12 (antibody, V domains shown)
VH: B1 VH with D30S, D31S, G33S, H35N, S50N, S55G, S59G, N101T, A106H
VL: B1 VL with V33L, V47L, T51A, S94L
notes: VH/VL only
B27: 376_A04 (antibody, V domains shown)
VH: B1 VH with D31S, G33S, H35N, A49S, S50N, S55G
VL: B1 VL with L30V, V33L, T51A
notes: VH/VL only
B28: 376_F03 (antibody, V domains shown)
VH: B1 VH with D31S, H35N, S50N, S55G, S59G
VL: B1 VL with L30I, R54L, D93S
notes: VH/VL only
B29: 375_E01 (antibody, V domains shown)
VH: B1 VH with D30S, D31S, G33S, H35N, A49S, S50G, T58K
VL: B1 VL with V33L, T51A, Y92D
notes: VH/VL only
B30: 376_D05 (antibody, V domains shown)
VH: B1 VH with D30S, D31S, G33S, H35N, A49S, S50N, S55G, T58K, S59G
VL: B1 VL with L30V, T31S, V47L, T51A, R54L, S94T
notes: VH/VL only
B31: 376_C12 (antibody, V domains shown)
VH: B1 VH with D30S, D31S, G33S, H35N, S50G, S55G, S59G
VL: B1 VL with V47L, T51A
notes: VH/VL only
B32: 375_G07 (antibody, V domains shown)
VH: B1 VH with D31S, G33S, H35N, S50G, N101T, A106H
VL: B1 VL with T31S, V33L, T51A, R54L, S94L
notes: VH/VL only
B33: 376_B06 (antibody, V domains shown)
VH: B1 VH with D30S, D31S, G33S, H35N, S50G, T58K, S59G, N101T, A106H
VL: B1 VL with V33L, V47L, T51A, S94L
notes: VH/VL only
B34: 376_D11 (antibody, V domains shown)
VH: B1 VH with D30S, D31S, H35N, S50N, S55G, S59G
VL: B1 VL with T31S, V33L, T51A, D93N, S94N
notes: VH/VL only
B35: 376_A12 (antibody, V domains shown)
VH: B1 VH with D30S, D31S, G33S, H35N, S50N, T58K, S59G
VL: B1 VL with T31S, T51A, S94T
notes: VH/VL only

target: T1, biotinylated goat anti-human kappa light chain; assay: ELISA; positive control
T1 construct: Positive control of the ELISA
Method in brief: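 Monoclonal antibodies were first applied to human or mouse ACVR2A, alongside biotinylated goat anti-human kappa light chain (positive control) and human Fc (negative control); binding was then determined by ELISA.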
Further: test concentration or dose not given here.

| optical density | Binder |
| --- | --- |
| 3.29 OD | B1 |
| 3.61 OD | B2 |
| 3.25 OD | B3 |
| 3.17 OD | B4 |
| 3.51 OD | B5 |
| 3.24 OD | B6 |
| 3.42 OD | B7 |
| 3.44 OD | B8 |
| 3.53 OD | B9 |
| 3.21 OD | B10 |
| 3.45 OD | B11 |
| 3.46 OD | B12 |
| 3.58 OD | B13 |
| 3.3 OD | B14 |
| 3.47 OD | B15 |
| 3.23 OD | B16 |
| 3.2 OD | B17 |
| 3.44 OD | B18 |

| optical density | Binder |
| --- | --- |
| 3.42 OD | B19 |
| 3.26 OD | B20 |
| 3.47 OD | B21 |
| 3.43 OD | B22 |
| 3.16 OD | B23 |
| 3.52 OD | B24 |
| 3.06 OD | B25 |
| 3.27 OD | B26 |
| 3.12 OD | B27 |
| 3.44 OD | B28 |
| 3.11 OD | B29 |
| 3.34 OD | B30 |
| 3.39 OD | B31 |
| 3.2 OD | B32 |
| 3.46 OD | B33 |
| 3.43 OD | B34 |
| 3.22 OD | B35 |

target: mouse ACVR2A (mouse, UniProt P27038 20-135, limits assumed); assay: ELISA
Method in brief: (§1)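 Binding signal was read by ELISA after ACVR2A-specific monoclonal antibodies were tested against human ACVR2A and mouse ACVR2A, with human Fc as the negative control.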

mouse ACVR2A, sequence (P27038 20-135 limits assumed): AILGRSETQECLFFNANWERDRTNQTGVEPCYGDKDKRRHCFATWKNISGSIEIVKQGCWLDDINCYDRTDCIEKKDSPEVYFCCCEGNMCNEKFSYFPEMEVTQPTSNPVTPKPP

| optical density | Binder |
| --- | --- |
| 3.21 OD | B1 |
| 3.75 OD | B2 |
| 3.63 OD | B3 |
| 3.64 OD | B4 |
| 3.72 OD | B5 |
| 3.67 OD | B6 |
| 3.32 OD | B7 |
| 3.53 OD | B8 |
| 3.71 OD | B9 |
| 3.61 OD | B10 |
| 3.65 OD | B11 |
| 3.63 OD | B12 |
| 3.48 OD | B13 |
| 3.4 OD | B14 |
| 3.64 OD | B15 |
| 3.16 OD | B16 |
| 3.6 OD | B17 |
| 3.25 OD | B18 |

| optical density | Binder |
| --- | --- |
| 3.74 OD | B19 |
| 3.1 OD | B20 |
| 3.64 OD | B21 |
| 3.56 OD | B22 |
| 3.74 OD | B23 |
| 3.78 OD | B24 |
| 3.81 OD | B25 |
| 3.33 OD | B26 |
| 3.58 OD | B27 |
| 3.47 OD | B28 |
| 3.63 OD | B29 |
| 3.71 OD | B30 |
| 3.32 OD | B31 |
| 3.67 OD | B32 |
| 3.77 OD | B33 |
| 3.62 OD | B34 |
| 3.34 OD | B35 |

target: human ACVR2A (human, UniProt P27037 20-135, limits assumed); assay: ELISA
Method in brief: as §1

human ACVR2A, sequence (P27037 20-135 limits assumed): as the sequence (P27038 20-135 limits assumed) above, with R20K, I73V counted along it

| optical density | Binder |
| --- | --- |
| 2.65 OD | B1 |
| 3.69 OD | B2 |
| 3.56 OD | B3 |
| 3.68 OD | B4 |
| 3.78 OD | B5 |
| 3.28 OD | B6 |
| 3.61 OD | B7 |
| 3.44 OD | B8 |
| 3.73 OD | B9 |
| 3.46 OD | B10 |
| 3.68 OD | B11 |
| 3.7 OD | B12 |
| 3.41 OD | B13 |
| 3.29 OD | B14 |
| 3.64 OD | B15 |
| 3.24 OD | B16 |
| 3.26 OD | B17 |
| 3.13 OD | B18 |

| optical density | Binder |
| --- | --- |
| 3.79 OD | B19 |
| 3.26 OD | B20 |
| 3.69 OD | B21 |
| 3.49 OD | B22 |
| 3.69 OD | B23 |
| 3.65 OD | B24 |
| 3.68 OD | B25 |
| 3.66 OD | B26 |
| 3.59 OD | B27 |
| 3.29 OD | B28 |
| 3.16 OD | B29 |
| 3.6 OD | B30 |
| 3.7 OD | B31 |
| 3.63 OD | B32 |
| 3.7 OD | B33 |
| 3.7 OD | B34 |
| 3.7 OD | B35 |
